# Laboratory results taken from patent US20230381229A1 (ALPINE IMMUNE SCIENCES, INC., published 2023).
# T1: TIGIT (human)
# T1 chain: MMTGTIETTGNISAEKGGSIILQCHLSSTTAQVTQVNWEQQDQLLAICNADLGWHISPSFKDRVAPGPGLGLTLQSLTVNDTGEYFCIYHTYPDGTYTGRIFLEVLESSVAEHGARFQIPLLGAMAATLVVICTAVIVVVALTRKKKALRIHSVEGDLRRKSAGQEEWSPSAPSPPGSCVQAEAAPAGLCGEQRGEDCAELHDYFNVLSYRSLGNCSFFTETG
# B1: variant CD155 IgV-Fc V11E, P18H, F20Y, V25E, N35S, H49R, L79P, F91S, T107M, G111R (Fc fusion)
# chain: WPPPGTGDVVEQAPTQVHGYLGDSETLPCYLQVPSMEVTHVSQLTWARRGESGSMAVFHQTQGPSYSESKRLEFVAARPGAELRNASLRMSGLRVEDEGNYTCLFVMFPQRSRSVDIWLRVLGSGGGGSEPKSSDKTHTCPPCPAPEAEGAPSVFLFPPKPKDTLMISRTPEVTCVVVDVSHEDPEVKFNWYVDGVEVHNAKTKPREEQYNSTYRVVSVLTVLHQDWLNGKEYKCKVSNKALPAPIEKTISKAKGQPREPQVYTLPPSRDELTKNQVSLTCLVKGFYPSDIAVEWESNGQPENNYKTTPPVLDSDGSFFLYSKLTVDKSRWQQGNVFSCSVMHEALHNHYTQKSLSLSPGK
# B2: variant CD155 IgV-Fc P18S, V41A, H49R, S54C, L79S, N85Y, L88P, F91S, L104M, T107M (Fc fusion)
# chain: WPPPGTGDVVVQAPTQVSGFLGDSVTLPCYLQVPNMEVTHASQLTWARRGESGCMAVFHQTQGPSYSESKRLEFVAARSGAELRYASPRMSGLRVEDEGNYTCMFVMFPQGSRSVDIWLRVLGSGGGGSEPKSSDKTHTCPPCPAPEAEGAPSVFLFPPKPKDTLMISRTPEVTCVVVDVSHEDPEVKFNWYVDGVEVHNAKTKPREEQYNSTYRVVSVLTVLHQDWLNGKEYKCKVSNKALPAPIEKTISKAKGQPREPQVYTLPPSRDELTKNQVSLTCLVKGFYPSDIAVEWESNGQPENNYKTTPPVLDSDGSFFLYSKLTVDKSRWQQGNVFSCSVMHEALHNHYTQKSLSLSPGK
# B3: variant CD155 IgV-Fc V9A, P18F, T61S, Q62L, L79P, F91S, G111R (Fc fusion)
# chain: WPPPGTGDAVVQAPTQVFGFLGDSVTLPCYLQVPNMEVTHVSQLTWARHGESGSMAVFHQSLGPSYSESKRLEFVAARPGAELRNASLRMSGLRVEDEGNYTCLFVTFPQRSRSVDIWLRVLGSGGGGSEPKSSDKTHTCPPCPAPEAEGAPSVFLFPPKPKDTLMISRTPEVTCVVVDVSHEDPEVKFNWYVDGVEVHNAKTKPREEQYNSTYRVVSVLTVLHQDWLNGKEYKCKVSNKALPAPIEKTISKAKGQPREPQVYTLPPSRDELTKNQVSLTCLVKGFYPSDIAVEWESNGQPENNYKTTPPVLDSDGSFFLYSKLTVDKSRWQQGNVFSCSVMHEALHNHYTQKSLSLSPGK
# B4: variant CD155 IgV-Fc V9L, P18Y, V25A, V38G, M55V, A77T, L79P, M90I, F91S, L104M (Fc fusion)
# chain: WPPPGTGDLVVQAPTQVYGFLGDSATLPCYLQVPNMEGTHVSQLTWARHGESGSVAVFHQTQGPSYSESKRLEFVATRPGAELRNASLRISGLRVEDEGNYTCMFVTFPQGSRSVDIWLRVLGSGGGGSEPKSSDKTHTCPPCPAPEAEGAPSVFLFPPKPKDTLMISRTPEVTCVVVDVSHEDPEVKFNWYVDGVEVHNAKTKPREEQYNSTYRVVSVLTVLHQDWLNGKEYKCKVSNKALPAPIEKTISKAKGQPREPQVYTLPPSRDELTKNQVSLTCLVKGFYPSDIAVEWESNGQPENNYKTTPPVLDSDGSFFLYSKLTVDKSRWQQGNVFSCSVMHEALHNHYTQKSLSLSPGK
# B5: variant CD155 IgV-Fc V9I, P18T, H49R, L79P, N85D, F91S, L104T, T107M (Fc fusion)
# chain: WPPPGTGDIVVQAPTQVTGFLGDSVTLPCYLQVPNMEVTHVSQLTWARRGESGSMAVFHQTQGPSYSESKRLEFVAARPGAELRDASLRMSGLRVEDEGNYTCTFVMFPQGSRSVDIWLRVLGSGGGGSEPKSSDKTHTCPPCPAPEAEGAPSVFLFPPKPKDTLMISRTPEVTCVVVDVSHEDPEVKFNWYVDGVEVHNAKTKPREEQYNSTYRVVSVLTVLHQDWLNGKEYKCKVSNKALPAPIEKTISKAKGQPREPQVYTLPPSRDELTKNQVSLTCLVKGFYPSDIAVEWESNGQPENNYKTTPPVLDSDGSFFLYSKLTVDKSRWQQGNVFSCSVMHEALHNHYTQKSLSLSPGK
# B6: variant CD155 IgV-Fc V11A, P18T, N35S, L79P, S87T, F91S (Fc fusion)
# chain: WPPPGTGDVVAQAPTQVTGFLGDSVTLPCYLQVPSMEVTHVSQLTWARHGESGSMAVFHQTQGPSYSESKRLEFVAARPGAELRNATLRMSGLRVEDEGNYTCLFVTFPQGSRSVDIWLRVLGSGGGGSEPKSSDKTHTCPPCPAPEAEGAPSVFLFPPKPKDTLMISRTPEVTCVVVDVSHEDPEVKFNWYVDGVEVHNAKTKPREEQYNSTYRVVSVLTVLHQDWLNGKEYKCKVSNKALPAPIEKTISKAKGQPREPQVYTLPPSRDELTKNQVSLTCLVKGFYPSDIAVEWESNGQPENNYKTTPPVLDSDGSFFLYSKLTVDKSRWQQGNVFSCSVMHEALHNHYTQKSLSLSPGK
# B7: variant CD155 IgV-Fc P18T, S52A, V57A, Q60R, Q62K, S65C, L79P, F91T, N100Y, T107M (Fc fusion)
# chain: WPPPGTGDVVVQAPTQVTGFLGDSVTLPCYLQVPNMEVTHVSQLTWARHGEAGSMAAFHRTKGPCYSESKRLEFVAARPGAELRNASLRMTGLRVEDEGYYTCLFVMFPQGSRSVDIWLRVLGSGGGGSEPKSSDKTHTCPPCPAPEAEGAPSVFLFPPKPKDTLMISRTPEVTCVVVDVSHEDPEVKFNWYVDGVEVHNAKTKPREEQYNSTYRVVSVLTVLHQDWLNGKEYKCKVSNKALPAPIEKTISKAKGQPREPQVYTLPPSRDELTKNQVSLTCLVKGFYPSDIAVEWESNGQPENNYKTTPPVLDSDGSFFLYSKLTVDKSRWQQGNVFSCSVMHEALHNHYTQKSLSLSPGK
# B8: variant CD155 IgV-Fc P18S, A47G, L79P, F91S, L104M, T107A, R113W (Fc fusion)
# chain: WPPPGTGDVVVQAPTQVSGFLGDSVTLPCYLQVPNMEVTHVSQLTWGRHGESGSMAVFHQTQGPSYSESKRLEFVAARPGAELRNASLRMSGLRVEDEGNYTCMFVAFPQGSWSVDIWLRVLGSGGGGSEPKSSDKTHTCPPCPAPEAEGAPSVFLFPPKPKDTLMISRTPEVTCVVVDVSHEDPEVKFNWYVDGVEVHNAKTKPREEQYNSTYRVVSVLTVLHQDWLNGKEYKCKVSNKALPAPIEKTISKAKGQPREPQVYTLPPSRDELTKNQVSLTCLVKGFYPSDIAVEWESNGQPENNYKTTPPVLDSDGSFFLYSKLTVDKSRWQQGNVFSCSVMHEALHNHYTQKSLSLSPGK
# B9: variant CD155 IgV-Fc P18T, S52P, S65A, S67V, L79P, F91S, L104M, G111R (Fc fusion)
# chain: WPPPGTGDVVVQAPTQVTGFLGDSVTLPCYLQVPNMEVTHVSQLTWARHGEPGSMAVFHQTQGPAYVESKRLEFVAARPGAELRNASLRMSGLRVEDEGNYTCMFVTFPQRSRSVDIWLRVLGSGGGGSEPKSSDKTHTCPPCPAPEAEGAPSVFLFPPKPKDTLMISRTPEVTCVVVDVSHEDPEVKFNWYVDGVEVHNAKTKPREEQYNSTYRVVSVLTVLHQDWLNGKEYKCKVSNKALPAPIEKTISKAKGQPREPQVYTLPPSRDELTKNQVSLTCLVKGFYPSDIAVEWESNGQPENNYKTTPPVLDSDGSFFLYSKLTVDKSRWQQGNVFSCSVMHEALHNHYTQKSLSLSPGK
# B10: variant CD155 IgV-Fc V9L, P18S, Q60R, V75L, L79P, R89K, F91S, L104E, G111R (Fc fusion)
# chain: WPPPGTGDLVVQAPTQVSGFLGDSVTLPCYLQVPNMEVTHVSQLTWARHGESGSMAVFHRTQGPSYSESKRLEFLAARPGAELRNASLKMSGLRVEDEGNYTCEFVTFPQRSRSVDIWLRVLGSGGGGSEPKSSDKTHTCPPCPAPEAEGAPSVFLFPPKPKDTLMISRTPEVTCVVVDVSHEDPEVKFNWYVDGVEVHNAKTKPREEQYNSTYRVVSVLTVLHQDWLNGKEYKCKVSNKALPAPIEKTISKAKGQPREPQVYTLPPSRDELTKNQVSLTCLVKGFYPSDIAVEWESNGQPENNYKTTPPVLDSDGSFFLYSKLTVDKSRWQQGNVFSCSVMHEALHNHYTQKSLSLSPGK
# B11: variant CD155 IgV-Fc V11A, P18S, L79P, F91S, L104M, G111R (Fc fusion)
# chain: WPPPGTGDVVAQAPTQVSGFLGDSVTLPCYLQVPNMEVTHVSQLTWARHGESGSMAVFHQTQGPSYSESKRLEFVAARPGAELRNASLRMSGLRVEDEGNYTCMFVTFPQRSRSVDIWLRVLGSGGGGSEPKSSDKTHTCPPCPAPEAEGAPSVFLFPPKPKDTLMISRTPEVTCVVVDVSHEDPEVKFNWYVDGVEVHNAKTKPREEQYNSTYRVVSVLTVLHQDWLNGKEYKCKVSNKALPAPIEKTISKAKGQPREPQVYTLPPSRDELTKNQVSLTCLVKGFYPSDIAVEWESNGQPENNYKTTPPVLDSDGSFFLYSKLTVDKSRWQQGNVFSCSVMHEALHNHYTQKSLSLSPGK
# B12: variant CD155 IgV-Fc P18T, M36T, L79P, F91S, G111R (Fc fusion)
# chain: WPPPGTGDVVVQAPTQVTGFLGDSVTLPCYLQVPNTEVTHVSQLTWARHGESGSMAVFHQTQGPSYSESKRLEFVAARPGAELRNASLRMSGLRVEDEGNYTCLFVTFPQRSRSVDIWLRVLGSGGGGSEPKSSDKTHTCPPCPAPEAEGAPSVFLFPPKPKDTLMISRTPEVTCVVVDVSHEDPEVKFNWYVDGVEVHNAKTKPREEQYNSTYRVVSVLTVLHQDWLNGKEYKCKVSNKALPAPIEKTISKAKGQPREPQVYTLPPSRDELTKNQVSLTCLVKGFYPSDIAVEWESNGQPENNYKTTPPVLDSDGSFFLYSKLTVDKSRWQQGNVFSCSVMHEALHNHYTQKSLSLSPGK
# B13: variant CD155 IgV-Fc P18T, D23G, S24A, N35D, H49L, L79P, F91S, L104M, G111R (Fc fusion)
# chain: WPPPGTGDVVVQAPTQVTGFLGGAVTLPCYLQVPDMEVTHVSQLTWARLGESGSMAVFHQTQGPSYSESKRLEFVAARPGAELRNASLRMSGLRVEDEGNYTCMFVTFPQRSRSVDIWLRVLGSGGGGSEPKSSDKTHTCPPCPAPEAEGAPSVFLFPPKPKDTLMISRTPEVTCVVVDVSHEDPEVKFNWYVDGVEVHNAKTKPREEQYNSTYRVVSVLTVLHQDWLNGKEYKCKVSNKALPAPIEKTISKAKGQPREPQVYTLPPSRDELTKNQVSLTCLVKGFYPSDIAVEWESNGQPENNYKTTPPVLDSDGSFFLYSKLTVDKSRWQQGNVFSCSVMHEALHNHYTQKSLSLSPGK
# B14: variant CD155 IgV-Fc V11A, P18S, S54R, Q60P, Q62K, L79P, N85D, F91S, T107M (Fc fusion)
# chain: WPPPGTGDVVAQAPTQVSGFLGDSVTLPCYLQVPNMEVTHVSQLTWARHGESGRMAVFHPTKGPSYSESKRLEFVAARPGAELRDASLRMSGLRVEDEGNYTCLFVMFPQGSRSVDIWLRVLGSGGGGSEPKSSDKTHTCPPCPAPEAEGAPSVFLFPPKPKDTLMISRTPEVTCVVVDVSHEDPEVKFNWYVDGVEVHNAKTKPREEQYNSTYRVVSVLTVLHQDWLNGKEYKCKVSNKALPAPIEKTISKAKGQPREPQVYTLPPSRDELTKNQVSLTCLVKGFYPSDIAVEWESNGQPENNYKTTPPVLDSDGSFFLYSKLTVDKSRWQQGNVFSCSVMHEALHNHYTQKSLSLSPGK
# Target: T1, TIGIT
# Assay: cell-based or functional assay
row,Binder,"IL-2 luciferase reporter, Normalized Fold Change from CD155-ECD"
1,B1,-0.6 fold
2,B2,-1 fold
3,B3,1.3 fold
4,B4,1.2 fold
5,B5,4 fold
6,B6,2.1 fold
7,B7,2.1 fold

# Target: T1, TIGIT
# Assay: cell-based or functional assay
# Remark: another data set of the same source
row,Binder,"IL-2 luciferase reporter, Normalized Fold Change from CD155-ECD, proteins at 50 nM"
1,B8,5 fold
2,B9,3.6 fold
3,B10,1.8 fold
4,B11,0.4 fold
5,B12,4.1 fold
6,B13,3.2 fold
7,B14,2.6 fold
